What all share (assay): SDS-PAGE in the absence of reductant
The target of test [1] is endogenous COS-1 cell TSP (African green monkey (endogenous in COS-1)).
Test [2] concerns the target truncated TSP protein Val333 (human).
For test [3], the target named is truncated TSP protein Pro449 (human).

truncated TSP protein Pro449 (domain or fragment), sequence (P07996 374-552): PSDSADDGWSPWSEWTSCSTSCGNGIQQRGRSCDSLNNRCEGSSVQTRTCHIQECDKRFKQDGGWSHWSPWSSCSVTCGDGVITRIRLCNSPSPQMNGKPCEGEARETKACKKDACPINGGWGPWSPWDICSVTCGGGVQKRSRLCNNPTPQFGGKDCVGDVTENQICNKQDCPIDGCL
truncated TSP protein Val333 (domain or fragment), sequence (P07996 374-552): as above

Usually stoichiometry N stands for the number of molecules, sites or subunits per partner or assembly. “endogenous COS-1 cell TSP (natural protein)” returned a stoichiometry N in test [1] of 3.
In test [2], “truncated TSP protein Val333 (domain or fragment)” returned a stoichiometry N of 3.
In turn, “truncated TSP protein Pro449 (domain or fragment)” gave a stoichiometry N in test [3] of 3.
